From paper PMC8833184 come the findings set out here.

Positions count from the first letter of the chain named.

Data set [1] addresses T1, SF3A1-UBL G789I (human, UniProt Q15459 704-793, G789I).
T1 sequence: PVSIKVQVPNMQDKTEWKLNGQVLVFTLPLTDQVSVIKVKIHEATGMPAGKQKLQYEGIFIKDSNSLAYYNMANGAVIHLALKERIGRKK
Kind of data set: SPR. In general terms: SPR reads the build-up and loss of mass on a sensor chip optically.

The target of data set [2] is T2, SF3A1-UBL K754A (human, UniProt Q15459 704-793, K754A).
T2 sequence: T1 sequence with K51A, I86G
As to the kind of experiment: SPR.

The target of data set [3] is T3, SF3A1-UBL F763A (human, UniProt Q15459 704-793, F763A).
T3 sequence: T1 sequence with F60A, I86G
As to the kind of experiment: SPR.

The target in data set [4] is T4, SF3A1-UBL K717A (human, UniProt Q15459 704-793, K717A).
T4 sequence: T1 sequence with K14A, I86G
Kind of data set: SPR.

Data set [5] has as its target T5, SF3A1-UBL K765A (human, UniProt Q15459 704-793, K765A).
T5 sequence: T1 sequence with K62A, I86G
Kind of data set: SPR.

Data set [6] concerns the target T6, SF3A1-UBL G790I (human, UniProt Q15459 704-793, G790I).
T6 sequence: T1 sequence with I86G, G87I
Kind of data set: SPR.

Data set [7] addresses T7, SF3A1-UBL R791A (human, UniProt Q15459 704-793, R791A).
T7 sequence: T1 sequence with I86G, R88A
As to the kind of experiment: SPR.

Data set [8] addresses T8, SF3A1-UBL WT (human, UniProt Q15459 704-793).
T8 sequence: T1 sequence with I86G
Kind of data set: SPR.

Data set [9] deals with T8, SF3A1-UBL WT. As to the kind of experiment: NMR.

Broadly, the Kd is a measure of binding affinity in units of concentration. Higher therefore signals a looser complex. As for GGGGACUGCGUUCGCGCUUUCCCC (structured_RNA) [Biotin-U1-SL4-WT], the dissociation constant (Kd) in data set [1] was found to be 41.9 ± 5.7 µM; in data set [2] it was 16.7 ± 4.38 µM; in data set [3] it was 2760 ± 300 nM; in data set [4], 1590 ± 270 nM; in [5] it was 7.89 ± 0.71 µM; in data set [6], 14.1 ± 3.12 µM. The dissociation constant (Kd) in data set [7] was determined as 5.97 ± 0.5 µM; in data set [8], 332 ± 30 nM.
For the molecule GGGACUGCGUUCGCGCUUUCCC (structured_RNA) [22 nt U1-SL4], the binding result in data set [9] is “binds”.
